Measurements reported in article PMC7203116, “Cryo-electron microscopy reveals two distinct type IV pili assembled by the same bacterium” (Nature Communications, 2020).

B1: PilA5 (TT_C1836), pilin of Thermus thermophilus HB27 (subunit of the narrow type IV pilus) (natural protein, UniProt Q72GL2 6-116, looked up)
chain: FTLIELAIVIVIIGILVAIAVPRFVDLTDQANQANVDATAAAVRSAYAIATVQAKGIPTCDQVFANPEGGSTSGSTWTSSDNSTTVSCNASADTFTISRGGKTRTLNLTVN
modifications: extra density attributed to an O-linked glycan at Ser73; disulphide bond Cys60-Cys88
notes: 111 amino acids; all residues of the mature protein are in the model PDB 6XXE. numbers count on: the mature protein; Assembled as a helical filament (narrow pilus; rise 11.26 Å, twist 84.3°); the deposited model holds 16 identical subunits; also called Tt17; narrow pilus subunit; source: endogenous, pili isolated from T. thermophilus HB27 cells (ethanolamine buffer pH 10.5, ammonium sulfate …)
B2: PilA4, major pilin of Thermus thermophilus HB27 (subunit of the wide type IV pilus) (natural protein, UniProt Q72JC0 7-131, looked up)
chain: FTLIELLIVIAIIAILAAVLIPNLLAARKRANDTVVTAYLNDAVKFQEMYQIDNNSYTSNQAALISLGLKSTPANVTFSIVSASANSYCMIAGHSGGTVWFAATPDKGVYKTNTAVTSSQPESCP
modifications: extra densities attributed to O-linked glycans at Ser59, Ser66 and Ser71; disulphide bond Cys89-Cys124
notes: PilA4, major type IV pilin of Thermus thermophilus HB27; mature pilin of 125 amino acids (Phe1 to Pro125) after cleavage of the class III signal peptide; all residues of the mature protein are in the model PDB 6XXD. numbers count on: the mature protein; Assembled as a helical filament (wide pilus; rise 9.33 Å, twist 92.5°); the deposited model holds 16 identical subunits; also called wide pilus …

Target: the molecule itself
Assay: cryo-EM structure; single-particle cryoEM and helical reconstruction (SPRING) of pili isolated from T. thermophilus HB27; wide and narrow filaments boxed separately from the same micrographs; atomic models built de novo

Protein	binding result
B1	binds
B2	binds
